Measured values published in patent publication US20140242093A1, “METHODS AND COMPOSITIONS FOR MODULATING THE INNATE IMMUNE RESPONSE AND/OR MYOGENESIS IN A MAMMALIAN SUBJECT” (FRED HUTCHINSON CANCER RESEARCH CENTER, priority 2011, published 2014).

Key:
[1] = tested on: cultured human skeletal muscle cells; conditions: cited from earlier work
[2] = tested on: human rhabdomyosarcoma cell line RD; assay: Luciferase reporter assay with DUX4 binding sites; format: cell-based
Experimental: The DUX4 binding site in the ZSCAN4 pGL3-promoter construct was either reversed in orientation (as shown in FIG. 3D) or moved downstream of the reporter gene (as shown in FIG. 3E). […] Transfections and luciferase assays were done as in main methods. Data are given as the averages±SD of triplicates.
Transient DNA transfections of RD cells were performed using SuperFect (Qiagen) according to manufacturer specifications. Briefly, 3×10^5 cells were seeded per 35 mm plate the day prior to transfection. […] Cells were lysed 24 h post-transfection in Passive Lysis Buffer (Promega). Luciferase activities were quantified using reagents from the Dual-Luciferase Reporter Assay System (Promega) following manufacturer's instructions. Light emission was measured using BioTek Synergy2 luminometer. Luciferase data are given as the averages±SD of at least triplicates.

[3] = tested on: Human myoblasts; assay: Expression array of the innate immune response to lentiviral infection versus uninfected cells; format: cell-based
Experimental: RNA was harvested from the lenti-viral infected cells and uninfected control cells at 24 hours after infection.

B1: DUX4-s: short splice form of DUX4 (SEQ ID NO:112), keeps the double-homeobox domains, lacks the C-terminal activation domain (protein, listed as Homo sapiens)
chain: MALPTPSDSTLPAEARGRGRRRRLVWTPSQSEALRACFERNPYPGIATRERLAQAIGIPEPRVQIWFQNERSRQLRQHRRESRPWPGRRGPPEGRRKRTAVTGSQTALLLRAFEKDRFPGIAAREELARETGLPESRIQIWFQNRRARHPGQGGRAPAQV
[1]
  toxicity of forced over-expression: not toxic
[2]; TRIM48 or ZSCAN4 site, co-transfection in RD cells
  luciferase expression from pGL3-promoter reporter with 31 bp DUX4 binding site: did not activate expression
[2]; ZSCAN4 1.9 kb reporter
  effect on DUX4-fl reporter activation when co-expressed: interfered with the activity of DUX4-fl
[3]; expression array
  DEFB103A and DEFB103B transcripts: not
[3]; gene CCL2 NM_002982.3, vs lenti-GFP, 24 hours after infection
  CCL2 expression ratio vs GFP (.fc): 0.44 log2 fold change
[3]; gene CCL2 NM_002982.3, vs uninfected, 24 hours after infection
  CCL2 expression ratio vs NoLenti (.fc): 2.82 log2 fold change
[3]; gene CCL5 NM_002985.2, vs lenti-GFP, 24 hours after infection
  CCL5 expression ratio vs GFP (.fc): 1.89 log2 fold change
[3]; gene CCL5 NM_002985.2, vs uninfected, 24 hours after infection
  CCL5 expression ratio vs NoLenti (.fc): 4.33 log2 fold change
[3]; gene CXCL1 NM_001511.1, vs lenti-GFP, 24 hours after infection
  CXCL1 expression ratio vs GFP (.fc): 0.20 log2 fold change
[3]; gene CXCL1 NM_001511.1, vs uninfected, 24 hours after infection
  CXCL1 expression ratio vs NoLenti (.fc): 3.36 log2 fold change
[3]; gene CXCL2 NM_002089.3, vs lenti-GFP, 24 hours after infection
  CXCL2 expression ratio vs GFP (.fc): 0.00 log2 fold change
[3]; gene CXCL2 NM_002089.3, vs uninfected, 24 hours after infection
  CXCL2 expression ratio vs NoLenti (.fc): 1.09 log2 fold change
[3]; gene CXCL5 NM_002994.3, vs lenti-GFP, 24 hours after infection
  CXCL5 expression ratio vs GFP (.fc): 0.82 log2 fold change
[3]; gene CXCL5 NM_002994.3, vs uninfected, 24 hours after infection
  CXCL5 expression ratio vs NoLenti (.fc): 2.60 log2 fold change
[3]; gene CXCL6 NM_002993.2, vs lenti-GFP, 24 hours after infection
  CXCL6 expression ratio vs GFP (.fc): 0.17 log2 fold change
[3]; gene CXCL6 NM_002993.2, vs uninfected, 24 hours after infection
  CXCL6 expression ratio vs NoLenti (.fc): 1.77 log2 fold change
[3]; gene DDX58 NM_014314.3, vs lenti-GFP, 24 hours after infection
  DDX58 expression ratio vs GFP (.fc): 0.02 log2 fold change
[3]; gene DDX58 NM_014314.3, vs uninfected, 24 hours after infection
  DDX58 expression ratio vs NoLenti (.fc): 2.14 log2 fold change
[3]; gene DHX58 NM_024119.2, vs lenti-GFP, 24 hours after infection
  DHX58 (LGP2) expression ratio vs GFP (.fc): 0.70 log2 fold change
[3]; gene DHX58 NM_024119.2, vs uninfected, 24 hours after infection
  DHX58 (LGP2) expression ratio vs NoLenti (.fc): 3.04 log2 fold change
[3]; gene IFI6 NM_022872.2, vs lenti-GFP, 24 hours after infection
  IFI6 expression ratio vs GFP (.fc): −0.04 log2 fold change
[3]; gene IFI6 NM_022872.2, vs uninfected, 24 hours after infection
  IFI6 expression ratio vs NoLenti (.fc): 5.05 log2 fold change
[3]; gene IFI16 NM_005531.1, vs lenti-GFP, 24 hours after infection
  IFI16 expression ratio vs GFP (.fc): 0.68 log2 fold change
[3]; gene IFI16 NM_005531.1, vs uninfected, 24 hours after infection
  IFI16 expression ratio vs NoLenti (.fc): 2.52 log2 fold change
[3]; gene IFI27 NM_005532.3, vs lenti-GFP, 24 hours after infection
  IFI27 expression ratio vs GFP (.fc): 0.27 log2 fold change
[3]; gene IFI27 NM_005532.3, vs uninfected, 24 hours after infection
  IFI27 expression ratio vs NoLenti (.fc): 7.60 log2 fold change
[3]; gene IFI35 NM_005533.2, vs lenti-GFP, 24 hours after infection
  IFI35 expression ratio vs GFP (.fc): 0.92 log2 fold change
[3]; gene IFI35 NM_005533.2, vs uninfected, 24 hours after infection
  IFI35 expression ratio vs NoLenti (.fc): 4.33 log2 fold change
[3]; gene IFI44L NM_006820.1, vs lenti-GFP, 24 hours after infection
  IFI44L expression ratio vs GFP (.fc): 0.47 log2 fold change
[3]; gene IFI44L NM_006820.1, vs uninfected, 24 hours after infection
  IFI44L expression ratio vs NoLenti (.fc): 6.22 log2 fold change
[3]; gene IFI44 NM_006417.3, vs lenti-GFP, 24 hours after infection
  IFI44 expression ratio vs GFP (.fc): 0.29 log2 fold change
[3]; gene IFI44 NM_006417.3, vs uninfected, 24 hours after infection
  IFI44 expression ratio vs NoLenti (.fc): 3.59 log2 fold change
[3]; gene IFIH1 NM_022168.2, vs lenti-GFP, 24 hours after infection
  IFIH1 (MDA5) expression ratio vs GFP (.fc): 1.66 log2 fold change
[3]; gene IFIH1 NM_022168.2, vs uninfected, 24 hours after infection
  IFIH1 (MDA5) expression ratio vs NoLenti (.fc): 5.34 log2 fold change
[3]; gene IFIT1 NM_001548.3, vs lenti-GFP, 24 hours after infection
  IFIT1 expression ratio vs GFP (.fc): 0.72 log2 fold change
[3]; gene IFIT1 NM_001548.3, vs uninfected, 24 hours after infection
  IFIT1 expression ratio vs NoLenti (.fc): 5.50 log2 fold change
[3]; gene IFIT3 NM_001549.2, vs lenti-GFP, 24 hours after infection
  IFIT3 expression ratio vs GFP (.fc): 1.81 log2 fold change
[3]; gene IFIT3 NM_001549.2, vs uninfected, 24 hours after infection
  IFIT3 expression ratio vs NoLenti (.fc): 5.49 log2 fold change
[3]; gene IFIT5 NM_012420.1, vs lenti-GFP, 24 hours after infection
  IFIT5 expression ratio vs GFP (.fc): −0.28 log2 fold change
[3]; gene IFIT5 NM_012420.1, vs uninfected, 24 hours after infection
  IFIT5 expression ratio vs NoLenti (.fc): 0.81 log2 fold change
[3]; gene IFITM1 NM_003641.3, vs lenti-GFP, 24 hours after infection
  IFITM1 expression ratio vs GFP (.fc): 0.34 log2 fold change
[3]; gene IFITM1 NM_003641.3, vs uninfected, 24 hours after infection
  IFITM1 expression ratio vs NoLenti (.fc): 7.08 log2 fold change
[3]; gene IFITM2 NM_006435.2, vs lenti-GFP, 24 hours after infection
  IFITM2 expression ratio vs GFP (.fc): 0.01 log2 fold change
[3]; gene IFITM2 NM_006435.2, vs uninfected, 24 hours after infection
  IFITM2 expression ratio vs NoLenti (.fc): 1.29 log2 fold change
